The text below walks through data of patent publication US20240101959A1, “USE OF IL-2R-BETA-GAMMA AGONIST PEPTIDES IN CELL MANUFACTURING” (MEDIKINE, INC., priority 2022, published 2024).

No end group written: not given here. Some results are limits rather than exact numbers.

The test has as its target T1, hu-IL-2Rβ subunit (human, UniProt P14784 27-240, limits assumed).
T1 construct: also called human interleukin-2 receptor subunit β; CD122
T1 sequence (looked up): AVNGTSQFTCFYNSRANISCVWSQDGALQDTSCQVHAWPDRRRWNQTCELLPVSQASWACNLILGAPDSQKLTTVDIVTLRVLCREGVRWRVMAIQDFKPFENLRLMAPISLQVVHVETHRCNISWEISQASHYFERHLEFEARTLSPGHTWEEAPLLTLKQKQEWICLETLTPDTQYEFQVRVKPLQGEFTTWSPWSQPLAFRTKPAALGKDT
In words: phage ELISA competition assay.

Usually IC50 stands for the concentration that inhibits the measured activity by half. High values mean weaker potency in that assay, low ones greater potency in that assay. DGSWYTCWFTQLGEWCEQDDAK [SEQ ID NO 551] yielded an IC50 of less than 100 µM.

QDRRSPWYPCWMAKLGELCDLA [SEQ ID NO 114] showed an IC50 of less than 100 µM.

Molecule WGKLVRDCFLAKVGDLCDLFLW [SEQ ID NO 534] had an IC50 of less than 100 µM. The value for EFFHDCYVARVGELCDLFGW [SEQ ID NO 545] was less than 100 µM. Turning to YWCSVWQLGSVCEMNNEETQ [SEQ ID NO 549], the IC50 is less than 100 µM.

Turning to KWVHDCFLAKVGDVCDLFVV [SEQ ID NO 529], the IC50 was less than 100 µM. As for NWLPDCLFANVGELCDIFPW [SEQ ID NO 541], the figure is less than 100 µM; as for EHFHDCFFAKVGDLCDIFGN [SEQ ID NO 571], less than 100 µM; as for EGFHDCFFAKVGDLCDIFGH [SEQ ID NO 570], less than 100 µM. The molecule EHFHDCFFAKVGDLCDKFGQ [SEQ ID NO 572] yielded an IC50 of less than 100 µM. The value for HWFLDCFLANVGDLCDFFGN [SEQ ID NO 540] was less than 100 µM; that for RYLYDCFLALVGDLCVKFHQ [SEQ ID NO 531] was less than 100 µM; that for WAFYDCRNAQVGDFCDLWEF [SEQ ID NO 518] was less than 100 µM. As for QWFHNCFLARVGDTCDLFLW [SEQ ID NO 526], the half-inhibitory concentration (IC50) is less than 100 µM. On to WPCWAALGELCDLD [SEQ ID NO 557], for which the IC50 was less than 100 µM. In the case of TRRWYPCYLAKLGELCDLFEGGTR [SEQ ID NO 115], the IC50 was less than 100 µM.

AHFYDCFWAKAGELCDLWPS [SEQ ID NO 532] displayed an IC50 of less than 100 µM. VHDCFIAQVGDLCDLF [SEQ ID NO 556]: the IC50 is less than 100 µM. The value for YPCHMAQLGELCDLWSWGDI (not fully specified (bridges); cysteine pairing not given here) [SEQ ID NO 620] was less than 10 µM; that for QDGWLPCWMAQLGELCDLEYKR [SEQ ID NO 118] was less than 100 µM; that for DWLPDCYFANVGDLCSLFGS [SEQ ID NO 539] was less than 100 µM. As to EIFKDCLFANVGELCEIFPS [SEQ ID NO 542], the IC50 was less than 100 µM. As for SYLCWLDHWGVICEED (not fully specified (bridges); cysteine pairing not given here) [SEQ ID NO 546], the IC50 is less than 100 µM. Molecule YSFKDCYFAKVGELCELFLW [SEQ ID NO 544] displayed an IC50 of less than 100 µM. Turning to WYPCWGELCDLD [SEQ ID NO 560], the IC50 is less than 100 µM. EFWGWQCWQEPLGWSCDLEWMD [SEQ ID NO 552] gave a concentration for half-maximal inhibition (IC50) of less than 100 µM.

Molecule LVDCFKVKVGELCDLF (not fully specified (bridges); cysteine pairing not given here) [SEQ ID NO 555] registered an IC50 of less than 100 µM. As for YPCWMAQLGELCDL [SEQ ID NO 621], the figure is less than 10 µM; as for WPCWLGELCDLD [SEQ ID NO 559], less than 100 µM.

In turn, AFFHDCFFAKAGDLCDFFDD [SEQ ID NO 568] yielded an IC50 of less than 100 µM.

In turn, QFVKDCFLAQVGDLCELFLW [SEQ ID NO 538] yielded an IC50 of less than 100 µM. The value for NWFHDCFLARVGDLCDLFLD [SEQ ID NO 543] was less than 100 µM. For the molecule RYVHDCFIAQVGDLCDLFLH [SEQ ID NO 528], the IC50 is less than 100 µM. On to HWVRDCFLAKVGELCDLFLW [SEQ ID NO 536], for which the IC50 is less than 100 µM.

Consider SWLSDLQDCYIAQVGDLCQI [SEQ ID NO 523], for which the IC50 was less than 100 µM. As for SMDQDCYFAQVGELCVLFNQ [SEQ ID NO 519], the figure is less than 100 µM; as for SNWHDCLFAQVGELCDLPGS (not fully specified (bridges); cysteine pairing not given here) [SEQ ID NO 521], less than 100 µM. In the case of WEWYDCLMAQVGELCDFEGN [SEQ ID NO 517], the IC50 is less than 100 µM. On to RLLRDCFLAKVGDLCELFVW [SEQ ID NO 525], for which the IC50 was less than 100 µM. For the molecule THVHDCFLAKVGDLCDLFIV [SEQ ID NO 535], the IC50 is less than 100 µM.

Turning to WYTCMMDWLGVHCELE [SEQ ID NO 547], the IC50 was less than 100 µM. The value for SEQWWPCWIARLGELCDLDRELSE [SEQ ID NO 116] was less than 100 µM; that for DFFHDCFFAKVGDLCDFFFG [SEQ ID NO 569] was less than 100 µM. As for VQYKKCWMAQLGDLCELDPS (not fully specified (bridges); cysteine pairing not given here) [SEQ ID NO 619], the figure is less than 10 µM; as for RLASDWWDCYIAKVGELCDF (not fully specified (bridges); cysteine pairing not given here) [SEQ ID NO 524], less than 100 µM.

Consider WYPCYRARLGELCDLD [SEQ ID NO 82], for which the IC50 is less than 100 µM.

Molecule NRRWYPCWMAQLGELCDLDSRP [SEQ ID NO 119] came in with an IC50 of less than 100 µM.

Regarding HIFHDCFIAKVGDLCDLFHS [SEQ ID NO 573], the IC50 was less than 100 µM. The value for YDCYIAQVGELCDI [SEQ ID NO 522] was less than 100 µM. As for WPCWALGELCDLD [SEQ ID NO 558], the figure is less than 100 µM. As for ELLVDCFKVKVGELCDLFFG [SEQ ID NO 527], the figure is less than 100 µM. The molecule HGILDCYFAKVGELCELFDW [SEQ ID NO 537] gave an IC50 of less than 100 µM. As for WYPCWVAQLGEICDLEMTGPDSWYP [SEQ ID NO 117], the figure is less than 100 µM; as for GGYYDCLIAEVGELCDIYGR [SEQ ID NO 520], less than 100 µM. The value for QMVWWDCWSTQEGPVCELNWTA [SEQ ID NO 548] was less than 100 µM; that for VSRYDCYIAKVGELCDFFEF [SEQ ID NO 515] was less than 100 µM.

Turning to WTCWLTQLGYDCNLDVVDQSLG [SEQ ID NO 550], the 50% inhibitory concentration (IC50) is less than 100 µM. The value for RSLVDCFLVKVGDLCDFFNW [SEQ ID NO 530] was less than 100 µM; that for VTVQDCYFARVGDLCDLFSP [SEQ ID NO 516] was less than 100 µM.
